The experiment addresses AAVhum.8 capsid (adeno-associated virus 8 (nonhuman primate isolate)) (UniProt Q8JQF8). Description: cryo-EM structure; purified AAVhum.8 vectors vitrified on Quantifoil grids; Titan Krios 300 kV; capsid reconstructed in cisTEM; 60-mer VP3 model refined against the map.

The record followed here is PMC8428401.

Consider “AAVhum.8 capsid (from UniProt Q8JQF8 218-738) (complex)”, for which the stoichiometry N (in general, a count of units in the complex or per binding partner) came to 60.
